These results are taken from patent US10457929B2.

In assay [1] the target is peptic-tryptic-pancreatinic digest of wheat gliadin.
Assay [2] shares this target. This is another data set of the same source.
Assay [3] has the same target. The source holds these as a separate data set.

Where two headings read alike, the source gives them in different places.

With “pig intestinal enzyme extract (pool or library)”, the Protection Index (%) in RLL assay in assay [1] amounted to 61%.

Consider crude caricain (pool or library), for which the Protection Index (%) in RLL assay in assay [1] was determined as 71%.

“Combination (1:1) of pig intestinal extract and crude caricain (pool or library)”: in assay [1], the Protection Index (%) in RLL assay is 92%.

In turn, “Fraction 4 from CM Sephadex C-50 ion exchange chromatography of papaya latex (pool or library)” displayed a Protection Index (%) in RLL assay in assay [2] of 84%.

For the substance “caricain (EC 3.4.22.30) (from UniProt P10056) (enzyme)”, the Protection offered against gliadin in RLL Assay in assay [3] came to 32.3%.
